Publication PMC4610628 (Immunology, 2015)
“And” between values parts separate entries of the source, which are not always exact repeats. Equal values may be shown once. Square brackets hold non-standard residues; d marks the D form. Ends that are not written are not given here. * marks the point of attachment. Biotin = O=C1N[C@H]2[C@H](CS[C@H]2CCCCC(=O)*)N1; pY = N[C@@H](Cc1ccc(OP(=O)(O)O)cc1)C(=O)O

T1: SHIP SH2 domain from SHIP-1, recombinant human (human, UniProt Q92835 5-101)
T1 construct: SH2 domain of the inositol phosphatase SHIP-1, human; source: recombinant, produced in-house and purified on the day of the experiment
T1 sequence (looked up): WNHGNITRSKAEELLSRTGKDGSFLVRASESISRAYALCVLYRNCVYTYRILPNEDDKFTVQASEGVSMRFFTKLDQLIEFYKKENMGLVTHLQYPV

T2: signalling lymphocyte activation molecule-associated protein (SAP), full length, recombinant human (human, UniProt O60880 1-128)
T2 construct: SAP (SH2D1A), human, full length recombinant protein; called 'soluble monomeric recombinant human SAP' in the results; also called SH2D1A; source: recombinant, produced in-house and purified on the day of the experiment
T2 sequence (looked up): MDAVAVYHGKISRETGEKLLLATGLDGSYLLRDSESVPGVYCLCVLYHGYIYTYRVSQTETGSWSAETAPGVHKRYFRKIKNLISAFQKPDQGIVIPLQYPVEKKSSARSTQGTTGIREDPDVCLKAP


What was measured:
[1] = target: T1, SHIP SH2 domain from SHIP-1, …; assay: SPR; BIAcore 3000; biotinylated phosphopeptides immobilised on a streptavidin-coated CM5 chip (~30 RU), purified recombinant protein passed over; 37°; 10 mM HEPES pH 7·4, 150 mM KCl, 10 mM EDTA, 0·005% Tween 20; equilibrium data, one-site binding curve; details: both partners purified
[2] = target: T2, signalling lymphocyte activation …; assay: as above; details: both partners purified
[3] = target: CD229 more distal ITSM phosphopeptide (TIpYCS) (human); assay: SPR; data not shown; SAP on tyrosine phosphorylated CD229 distal ITSM peptide, 37°C, n = 3

Binder	Kd [1]	Kd [2]	Kd [3]
Biotin-GENTM[pY]AQVFN (CD229 (Ly9, SLAMF3), human, first (membrane proximal) ITSM, natural variant Met602 of SNP rs509749; also called CD229 Met602 ITSM; TMpYAQV; source: synthetic peptide; bought: Peptide Protein Research Ltd) [CD229M phosphopeptide (CD229 ITSM1, Met602 variant)]	23 to 92 µM and > 50 µM	1.7 µM and 1.5 to 2 µM	
Biotin-EFLTI[pY]EDVKD (CD244 (2B4, SLAMF4), human, ITSM1; source: synthetic peptide; bought: Peptide Protein Research Ltd) [CD244-ITSM1 phosphopeptide]	25 µM		
Biotin-GENTV[pY]AQVFN (CD229 (Ly9, SLAMF3), human, first (membrane proximal) ITSM, natural variant Val602 of SNP rs509749; also called CD229 Val602 ITSM; TVpYAQV; source: synthetic peptide; bought: Peptide Protein Research Ltd) [CD229V phosphopeptide (CD229 ITSM1, Val602 variant)]	100 µM and 82 to 110 µM	3.4 µM and 2.8 µM and 4.4 µM	

More lines, now with the values ahead:

Kd [1]	Kd [2]	Kd [3]	Binder
0.36 µM			Biotin-ADKVGAENTIT[pY]SLLMHPDA (FcγRIIb, human, ITIM; source: synthetic peptide; bought: Peptide Protein Research Ltd) [FcγRIIb-ITIM phosphopeptide]
2.4 µM			Biotin-GGSTI[pY]SMIQS (CD244 (2B4, SLAMF4), human, ITSM2; source: synthetic peptide; bought: Peptide Protein Research Ltd) [CD244-ITSM2 phosphopeptide]
		0.1 µM	signalling lymphocyte activation molecule-associated protein (SAP), full length, recombinant human (natural protein) MDAVAVYHGKISRETGEKLLLATGLDGSYLLRDSESVPGVYCLCVLYHGYIYTYRVSQTETGSWSAETAPGVHKRYFRKIKNLISAFQKPDQGIVIPLQYPVEKKSSARSTQGTTGIREDPDVCLKAP
